Earlier results on one substance are cited in publication PMC3577484.

For the data set, the target named is insulin receptor (Xenopus laevis) (UniProt Q9PVZ4). In words: Scatchard radioligand binding.

Several values for one entry are separate records, joined by “and”; a condition that tells them apart may be missing. Equal entries are not always repeated.

Sequence of UniProt Q9PVZ4 (Q9PVZ4 759-1362): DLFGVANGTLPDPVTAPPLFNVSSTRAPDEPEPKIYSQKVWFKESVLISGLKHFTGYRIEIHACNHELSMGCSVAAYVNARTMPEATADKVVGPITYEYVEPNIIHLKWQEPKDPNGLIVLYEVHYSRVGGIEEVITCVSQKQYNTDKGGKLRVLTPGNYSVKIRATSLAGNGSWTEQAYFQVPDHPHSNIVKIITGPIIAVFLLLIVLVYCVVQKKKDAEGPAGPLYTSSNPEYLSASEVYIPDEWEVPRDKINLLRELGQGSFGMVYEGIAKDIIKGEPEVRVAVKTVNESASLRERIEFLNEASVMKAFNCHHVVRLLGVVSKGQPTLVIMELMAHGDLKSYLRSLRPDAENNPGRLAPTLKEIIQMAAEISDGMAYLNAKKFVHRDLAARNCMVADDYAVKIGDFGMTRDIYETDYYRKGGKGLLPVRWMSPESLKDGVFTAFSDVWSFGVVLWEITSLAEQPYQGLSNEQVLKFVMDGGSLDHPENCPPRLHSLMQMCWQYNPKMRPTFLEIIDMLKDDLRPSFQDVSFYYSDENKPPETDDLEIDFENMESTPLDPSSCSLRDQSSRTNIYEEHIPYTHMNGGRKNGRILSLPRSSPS
Sequence of insulin (F8WCM5 25-54): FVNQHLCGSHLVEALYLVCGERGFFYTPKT
Sequence of insulin (P01308 90-110, further chain): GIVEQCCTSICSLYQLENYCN

Broadly, the Kd is the concentration at which binding is half-saturated. In the case of insulin (from UniProt P01308), the equilibrium dissociation constant (Kd) is 0.886 nM and 5.32 nM.
